Experimental data: article PMC7810697, “Sarcolipin alters SERCA1a interdomain communication by impairing binding of both calcium and ATP” (Scientific Reports, 2021)
“And” between values parts separate entries of the source, which are not always exact repeats. Equal entries are not always repeated. Ends that are not written are not given here. * marks the point of attachment. Palmitoyl = CCCCCCCCCCCCCCCC(=O)*

Assays:
SERCA1a [1] = conditions: cited from earlier work
Source text: Besides its various roles in protein signalling and addressing, palmitoylation can also regulate oligomerisation processes of membrane proteins. Recent work has shown that other P-type ATPases regulatory subunits like phospholamban (PLB) and phospholemman (PLM) are palmitoylated[16],[17]. Acylation of PLB and PLM is functionally relevant by having an impact on the oligomerisation of the peptides, their association with their dedicated pumps (Ca^2+-ATPase or Na+, K+-ATPase, respectively) and on their lifetime.

SERCA1a [2] = conditions: cited from earlier work; remark: listed apart in the source
Source text: Effect on the turnover is less clear as it seems to highly depend on the system used for functional characterization. […] This post-translational modification is also present in pig SLN and presumably in a few other mammals and birds, as judged from the amino-acid sequences. Among the other hundred seq ...

[3] = biological target: T1, recombinant SERCA1a (recS1a) (Oryctolagus cuniculus, UniProt P04191); test: Turnover-dependent dephosphorylation kinetics; assay type: biochemical, rabbit (expressed in S. cerevisiae); conditions: for effect on rate of dephosphorylation: after addition of non-radioactive ATP
T1 construct: BAD (biotin acceptor domain) (C, cleaved yes); made in house; host or cells: Saccharomyces cerevisiae
Protocol: (§1) Transient formation of the phosphoenzyme intermediate was measured after incubation with [γ^32P]ATP followed by acid quenching, and filtration. For most experiments, 50 µL of enzyme at 10 µg/mL in a buffer containing 50 mM Tes-Tris pH7.5, 1 mM KCl, 5 mM MgCl2, 20% glycerol (w/w) and 0.5 mg/mL DDM, supplemented or not with SLN, was stored on ice. Concentrations of EGTA and calcium are specified in figure legends in order to reach the appropriate [Ca^2+]free and therefore the desired starting state for the ATPase. For kinetics of phosphorylation, we initiate reaction by addition of 2 µM [γ^32P]ATP (5 mCi/µmole), and calcium at 100 µM when specified. Reaction was quenched by addition of 2 mL of cold quenching medium (500 mM TCA + 30 mM H3P0_4) under vigorous mixing, and immediately stored on ice for 20–30 min to improve precipitation, a period of time critical for retention of the precipitate on the filter in presence of detergent. This was followed by filtration on GS filters (Millipore, Saint Quentin-Fallavier, France) and careful rinsing of the filters with diluted quenching medium (50 mM TCA + 3 mM H3P0_4). The amount of radioactivity bound to the filter was estimated by liquid scintillation counting (Perkin Elmer TriCarb Counter). When starting from a calcium-deprived state (Fig. 4C,D), EGTA was added only one minute before starting phosphorylation to limit irreversible inactivation of the solubilized ATPase, although the presence of glycerol helps in protecting the enzyme from irreversible inactivation. For dephosphorylation kinetics, 1 mM “cold” Mg.ATP was added after a 30 s period of phosphorylation. For Ca^2+-dependency, we adjust the concentration of free calcium according to the Ca.EGTA constant as mentioned above, before triggering phosphorylation. […] Phosphorylations were done at 0 °C especially for inhibition by vanadate to prevent dissociation of vanadate and limit irreversible inactivation in absence of calcium.

SERCA1a [4] = conditions: cross-linking experiments; cited from earlier work
Source text: An analysis of all the published data on biochemical characterization of PLB or SLN highlights heterogeneity in the results.

[5] = biological target: T1, recombinant SERCA1a (recS1a); test: Vanadate inhibition of phosphoenzyme formation, recS1a; assay type: biochemical, rabbit (expressed in S. cerevisiae); conditions: for K1/2 (K0.5) for vanadate inhibition, recS1a + pSLN: DDM-solubilized, preincubation with orthovanadate without calcium, phosphorylation 30 s at 0 °C, three independent experiments, p < 0.0001 vs recS1a alone
Protocol: as §1

[6] = biological target: T1, recombinant SERCA1a (recS1a); test: Calcium dependence of phosphoenzyme level; assay type: biochemical, rabbit (expressed in S. cerevisiae)
Protocol: as §1

[7] = biological target: T1, recombinant SERCA1a (recS1a); test: Calcium binding at equilibrium by tryptophan fluorescence; set-up: species or system rabbit (expressed in S. cerevisiae); conditions: average of three independent experiments; for Ca1/2 (tryptophan fluorescence), recS1a + pSLN: at equilibrium, pH 7, 20 °C, DDM, 20% glycerol, p=0.200 vs recS1a alone
Protocol: (§2) Intrinsic fluorescence of SERCA1a was measured with a SPEX Fluorolog spectrofluorometer (Horiba/Jobin–Yvon, Longjumeau, France) as described before. Briefly, signals were monitored with excitation and emission wavelength set at 295 and 320 nm, with bandwidths of 2 and 10 nm, respectively. Changes in tryptophan fluorescence were recorded at 20 °C after dilution of protein samples to a final concentration of about 6–7.5 µg/mL into a medium containing 50 mM MOPS-Tris pH 7, 100 mM KCl, 5 mM MgCl2, 20% glycerol (v/v) and 10 mg/mL DDM. In presence of SLN, recS1a and SLN were first mixed together and incubate for 1 h on ice before measurement. In absence of SLN, recS1a is supplemented with 0.07 mg/mL C12E8 to compensate the detergent present with SLN. The Maxchelator program was used for estimating [Ca^2+]free[59] (program available at https://somapp.ucdmc.ucdavis.edu/pharmacology/bers/maxchelator/downloads.htm). The dissociation constant of the Ca.EGTA complex was taken to be 0.4 µM at pH7 and was assumed to be the same in the presence of glycerol.

[8] = biological target: T1, recombinant SERCA1a (recS1a); test: Mg.ATP binding by tryptophan fluorescence; set-up: species or system rabbit (expressed in S. cerevisiae)
Protocol: as §2

T1 sequence (P04191 1-994 isoform P04191-2): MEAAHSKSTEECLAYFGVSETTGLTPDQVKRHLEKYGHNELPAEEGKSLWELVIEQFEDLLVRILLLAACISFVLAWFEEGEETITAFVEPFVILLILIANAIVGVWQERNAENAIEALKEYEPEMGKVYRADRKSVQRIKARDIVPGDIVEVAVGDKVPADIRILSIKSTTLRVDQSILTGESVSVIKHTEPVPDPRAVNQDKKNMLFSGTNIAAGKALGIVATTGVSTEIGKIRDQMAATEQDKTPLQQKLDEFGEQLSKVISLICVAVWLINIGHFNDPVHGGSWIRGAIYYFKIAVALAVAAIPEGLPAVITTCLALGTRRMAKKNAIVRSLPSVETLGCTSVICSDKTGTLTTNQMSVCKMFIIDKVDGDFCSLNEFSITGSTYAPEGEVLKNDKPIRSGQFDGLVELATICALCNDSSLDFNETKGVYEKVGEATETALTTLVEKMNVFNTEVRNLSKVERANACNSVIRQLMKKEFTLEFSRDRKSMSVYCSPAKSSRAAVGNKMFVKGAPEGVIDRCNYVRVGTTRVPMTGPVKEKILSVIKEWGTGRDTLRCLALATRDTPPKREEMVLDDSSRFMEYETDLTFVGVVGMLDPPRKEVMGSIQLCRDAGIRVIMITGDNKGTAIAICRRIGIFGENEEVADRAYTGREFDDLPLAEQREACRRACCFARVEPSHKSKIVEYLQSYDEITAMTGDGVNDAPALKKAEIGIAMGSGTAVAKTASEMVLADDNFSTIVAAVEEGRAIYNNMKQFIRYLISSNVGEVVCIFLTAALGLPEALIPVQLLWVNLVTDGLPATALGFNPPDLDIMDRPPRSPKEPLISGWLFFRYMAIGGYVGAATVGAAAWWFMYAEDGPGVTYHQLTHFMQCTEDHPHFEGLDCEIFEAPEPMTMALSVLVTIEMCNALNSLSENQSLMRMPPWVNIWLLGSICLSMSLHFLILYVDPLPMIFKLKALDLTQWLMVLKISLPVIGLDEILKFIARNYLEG

Row | effect on rate of dephosphorylation [3] | K1/2 (K0.5) for vanadate inhibition, recS1a + pSLN [5] | K1/2 (K0.5) for vanadate inhibition, recS1a + pSLN ([5]; listed as Palm-SLN) | EPmax (vanadate series) ([5]; recS1a + pSLN, recS1a alone 2.01 ± 0.05) | t1/2 of dephosphorylation ([3]; pSLN:SERCA1a 10:1 mol:mol, 1 mM cold Mg.ATP after 30 s phosphorylation, three replicates from two independent experiments, recS1a alone 2.4 +/- 0.4, p=0.064) | nH for calcium (phosphoenzyme level), recS1a + pSLN ([6]; five independent experiments) | Ca1/2 (phosphoenzyme level), recS1a + pSLN ([6]; phosphorylation 15 s, varying calcium, five independent experiments, 36 data points per fit, p = 0.29) | EPmax (calcium dependence) ([6]; recS1a + pSLN, Fig. 4E, recS1a alone 3.13 ± 0.11) | Ca1/2 (tryptophan fluorescence), recS1a + pSLN [7] | Ca1/2 (tryptophan fluorescence), recS1a + pSLN ([7]; listed as Palm-SLN) | nH for calcium (tryptophan fluorescence), recS1a + pSLN [7] | fluorescence change on 0.3 µM Mg.ATP, recS1a + pSLN ([8]; 0.3 µM Mg.ATP, increase of fluorescence in absence of pSLN) | fluorescence change on 300 µM Mg.ATP, recS1a + pSLN ([8]; 300 µM Mg.ATP, decrease of fluorescence in absence of pSLN) | Mg-ATP1/2 (affinity for Mg.ATP), recS1a + pSLN ([8]; calcium-deprived (2 mM EGTA), pH 7, 20 °C, DDM, 20% glycerol, three independent experiments, p = 0.045) | nH for Mg.ATP, recS1a + pSLN ([8]; three independent experiments) | Substance | effect of phosphorylation of SLN:Thr5 on SERCA1a inhibition (SERCA1a [1]) | apparent affinity for calcium in presence of SLN (SERCA1a [2]; 0.35 µM in absence of SLN) | Vmax in presence of SLN, increase reported by some authors (SERCA1a [2]; % of Vmax measured in absence of SLN, ref 13 and Supplementary Table 1) | cross-linking interaction with SERCA1a (SERCA1a [4])
1 | No effect |  |  |  |  |  |  |  |  |  |  |  |  |  |  | SLN: chemically synthesized non-palmitoylated rabbit sarcolipin; in cited literature results sarcolipin in general (MERSTRELCLNFTVVLITVILIWLLVRSYQY; UniProt P42532 1-31, looked up) | loss of inhibition of SERCA1a | 0.51 µM | up to 140% | interaction of SLN with SERCA1a at all the major steps of the catalytic cycle
2 | No effect | 0.22 ± 0.01 µM | 0.22+/-0.01 µM | 2.07 ± 0.21 nmoles/mg of ATPase | 2.8 ± 0.6 s | 0.74 ± 0.03 | 0.58 ± 0.05 µM and 0.58 µM | 3.19 ± 0.11 nmoles EP/mg ATPase | 4.5 µM | 4.48 +/- 0.52 µM | 1.96+/-0.20 | no fluorescence intensity variation | increase of signal | 11 µM and 11.0 ± 1 µM | 0.95 ± 0.06 | pSLN: chemically synthesized S-palmitoylated rabbit sarcolipin, 31-residue single-spanning membrane peptide, palmitoylated on Cys9 (MERSTRELC(Palmitoyl)LNFTVVLITVILIWLLVRSYQY; UniProt P42532 1-31, looked up) |  |  |  | 
